Article doi:10.1101/2022.09.22.509047, “Deciphering bacteriophage T5 host recognition mechanism and infection trigger” (bioRxiv, 2022)

Target: T1, E. coli iron ferrichrome transporter FhuA (E. coli, UniProt P06971 34-747)
T1 construct: FhuA, outer-membrane iron-ferrichrome transporter of E. coli; His-tag inserted in extracellular loop L5 after residue 405 (9 residues, not counted in the numbering); residues 1-17 disordered in the map; Lipopolysaccharide copurifies with FhuA; Purification is as in Flayhan et al, 2012; source: E. coli AW740, plasmid-encoded, grown with 100 µM dipyridine, purified; not shown: His6, internal (after …)
T1 sequence (looked up): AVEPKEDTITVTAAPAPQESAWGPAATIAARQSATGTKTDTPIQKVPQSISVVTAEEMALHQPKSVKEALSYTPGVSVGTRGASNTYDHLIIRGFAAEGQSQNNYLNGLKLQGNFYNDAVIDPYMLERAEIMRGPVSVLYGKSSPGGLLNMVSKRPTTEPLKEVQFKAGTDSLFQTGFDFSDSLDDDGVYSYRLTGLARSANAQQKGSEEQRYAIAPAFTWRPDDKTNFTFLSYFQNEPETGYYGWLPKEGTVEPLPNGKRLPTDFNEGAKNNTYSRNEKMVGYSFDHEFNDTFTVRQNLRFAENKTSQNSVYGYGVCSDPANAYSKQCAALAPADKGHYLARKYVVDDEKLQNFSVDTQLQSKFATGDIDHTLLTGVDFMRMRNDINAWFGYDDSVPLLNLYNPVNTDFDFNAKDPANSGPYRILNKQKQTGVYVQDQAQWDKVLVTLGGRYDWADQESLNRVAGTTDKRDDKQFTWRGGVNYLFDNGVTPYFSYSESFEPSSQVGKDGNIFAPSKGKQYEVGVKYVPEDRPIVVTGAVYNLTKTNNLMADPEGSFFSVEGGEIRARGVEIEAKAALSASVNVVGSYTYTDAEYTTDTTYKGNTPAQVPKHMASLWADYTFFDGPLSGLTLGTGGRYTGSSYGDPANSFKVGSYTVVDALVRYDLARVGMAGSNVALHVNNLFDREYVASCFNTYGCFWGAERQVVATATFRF
Experiment: cryo-EM structure; FhuA-RBPpb5 complex formed from equimolar amounts of the two purified proteins; 20 mM Tris, 1.6% C10DAO, 4.3 mg/mL; 2.6 Å average resolution
Conditions: both partners purified

B1: bacteriophage T5 Receptor Binding Protein pb5 (natural protein)
chain: MSFFAGKLNNKSILSLRRGSGGDTNQHINPDSQTIFHSDMSHVIITETHSTGLRLDQGAGDYYWSEMPSRVTQLHNNDPNRVVLTEIEFSDGSRHMLSGMSMGVGAKAYGIINPQIMSQGGLKTQITASADLSLDVGYFNTGTSGTIPQKLRDGTGCQHMFGAFSGRRGFASSAMYLGGAALYKSAWSGSGYVVADAGTLTIPSDYVRHPGARNFGFNAIYVRGRSCNRVLYGMEGPNYTTGGAVQGASSSGALNFTYNPSNPESPKYSVGFARADPTNYAYWESMGDPNDSANGPIGIYSEHLGIYPSKITWYVTNLVYNGSGYNIDGGLFNGNDIKLSPREFIIKGVNVNNTSWKFINFIEKNFNVGNRADFRDVGCNLSKDSPSTGISGIATFGLPTTESNNAPSIKGGNVGGLHANVVSIYNFLPSASWYVSSNPPKIGNNYGDVWSENLLPLRLLGGSGSTILSGNIVFQGNGSVHVGTVGLDLNSSRNGAIVCTMEFIDDTWLSAGGIGCFNPTEMLSQGAEYGDSRFRIGGNTINKKLHQILSLPAGEYVPFFTIKGTVVNACKLQAAAYNPTPYWVSGLPGSVGQTGYYTLTYYMRNDGNNNISIWLDSSMSNIIGMKACLPNIKLIIQRLT
notes: 640 residues; residues 1-37, 333-352, 365-371 and 427-455 not traced in the map; In the functional rows pb5 stands on the phage T5 tail tip (T5st0), untagged; also called RBPpb5; source: E. coli BL21(DE3), pET-28 vector, 20 °C without induction, purified; not shown: His tag, C-terminal, kept
binding result: binds
